Assay results reported in patent publication US20120164153A1 (GOVERNMENT OF THE UNITED STATES AS REPRESENTED BY THE …, published 2012).

T1: Zaire ebolavirus (ZEBOV) GP (Zaire ebolavirus, UniProt Q05320 33-676)
T1 construct: whole, on cells; also called Zaire GP
T1 sequence: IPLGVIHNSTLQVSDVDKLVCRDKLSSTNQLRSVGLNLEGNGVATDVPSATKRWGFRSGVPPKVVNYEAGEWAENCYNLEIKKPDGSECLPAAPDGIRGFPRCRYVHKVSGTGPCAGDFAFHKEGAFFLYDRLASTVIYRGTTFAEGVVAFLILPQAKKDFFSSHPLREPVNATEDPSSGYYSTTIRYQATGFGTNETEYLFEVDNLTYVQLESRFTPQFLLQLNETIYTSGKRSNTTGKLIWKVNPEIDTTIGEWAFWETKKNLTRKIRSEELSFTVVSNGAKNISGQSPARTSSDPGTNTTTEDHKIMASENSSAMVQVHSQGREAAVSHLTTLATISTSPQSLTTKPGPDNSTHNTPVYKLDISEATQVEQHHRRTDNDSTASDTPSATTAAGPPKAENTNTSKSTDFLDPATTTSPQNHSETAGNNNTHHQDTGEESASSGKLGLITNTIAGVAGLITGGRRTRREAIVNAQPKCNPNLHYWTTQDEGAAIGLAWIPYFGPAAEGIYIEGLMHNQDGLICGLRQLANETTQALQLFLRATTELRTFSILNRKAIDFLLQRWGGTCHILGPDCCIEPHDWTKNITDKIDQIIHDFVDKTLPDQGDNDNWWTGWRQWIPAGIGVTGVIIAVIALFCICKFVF

B1: monoclonal antibody 16F6 (murine IgG1) (antibody, V domains shown)
VH: EVQLVESGGGLVTPGGSLKLSCAASGFAFNYYDMFWVRQNTEKRLEWVAYINSGGGNTYYPDTVKGRFTISRDNAKKTLFLQMSSLRSEDTAMYYCARQLYGNSFFDYWGQGTSLTVSA
VL: DIVMTQSHKFMSTSVGDRVTITCKASQDVTTAVAWYQQKPGHSPKLLIYWASTRHTGVPDRFTGSGSGTDFTLTLNSVQAEDLALYYCQQHYSTPLTFGAGTKLELK
notes: also called mAb 16F6; MAb 16F6

Legend:
[1] = molecular target: Zaire ebolavirus (ZEBOV) GP (Zaire ebolavirus) (UniProt Q05320); assay: cell-based or functional assay
[2] = molecular target: T1, Zaire ebolavirus (ZEBOV) GP; assay: flow cytometry on infected Vero cells (FIG. 15)

| Molecule | neutralization of Zaire GP-pseudotyped VSV on 293 cells [1] | binding result [2] |
| --- | --- | --- |
| monoclonal antibody KZ52 | 90% | – |
| B1 | – | no binding |
